# According to paper PMC2691550 (Biochemistry, 2006):
# B1: Tyrosine phenol-lyase holoenzyme (Citrobacter freundii), in complex with pyridoxal-5′-phosphate and K+ at pH 8.0 (enzyme, UniProt P31013 1-456, looked up)
# chain: MNYPAEPFRIKSVETVSMIPRDERLKKMQEAGYNTFLLNSKDIYIDLLTDSGTNAMSDKQWAGMMMGDEAYAGSENFYHLERTVQELFGFKHIVPTHQGRGAENLLSQLAIKPGQYVAGNMYFTTTRYHQEKNGAVFVDIVRDEAHDAGLNIAFKGDIDLKKLQKLIDEKGAENIAYICLAVTVNLAGGQPVSMANMRAVRELTEAHGIKVFYDATRCVENAYFIKEQEQGFENKSIAEIVHEMFSYADGCTMSGKKDCLVNIGGFLCMNDDEMFSSAKELVVVYEGMPSYGGLAGRDMEAMAIGLREAMQYEYIEHRVKQVRYLGDKLKAAGVPIVEPVGGHAVFLDARRFCEHLTQDEFPAQSLAASIYVETGVRSMERGIISAGRNNVTGEHHRPKLETVRLTIPRRVYTYAHMDVVADGIIKLYQHKEDIRGLKFIYEPKQLRFFTARFDYI
# modifications: Lys257 Nζ covalently linked to C4′ of pyridoxal-5′-phosphate (internal aldimine)
# Molecular target: the molecule itself
# Experiment: crystal structure
protein,measurement,value
B1,stoichiometry N,4
